# Results: article PMC5312596, “A novel Pfs38 protein complex on the surface of Plasmodium falciparum blood-stage merozoites” (Malaria Journal, 2017)
# T1: recombinant PfMSP-1_(65) (aa 1052–1664) (Plasmodium falciparum 3D7, UniProt Q8I0U8 1052-1664)
# T1 construct: Merozoite surface protein 1 (MSP-1), Plasmodium falciparum 3D7, aa 1052-1664, amplified from 3D7 cDNA and cloned in pET28b (NcoI/XhoI); Cloning in pET28b between NcoI and XhoI would give a C-terminal His6 (surmised); also called rPfMSP-1_(65); source: E. coli BL21, soluble, purified (Ni-NTA)
# T1 sequence: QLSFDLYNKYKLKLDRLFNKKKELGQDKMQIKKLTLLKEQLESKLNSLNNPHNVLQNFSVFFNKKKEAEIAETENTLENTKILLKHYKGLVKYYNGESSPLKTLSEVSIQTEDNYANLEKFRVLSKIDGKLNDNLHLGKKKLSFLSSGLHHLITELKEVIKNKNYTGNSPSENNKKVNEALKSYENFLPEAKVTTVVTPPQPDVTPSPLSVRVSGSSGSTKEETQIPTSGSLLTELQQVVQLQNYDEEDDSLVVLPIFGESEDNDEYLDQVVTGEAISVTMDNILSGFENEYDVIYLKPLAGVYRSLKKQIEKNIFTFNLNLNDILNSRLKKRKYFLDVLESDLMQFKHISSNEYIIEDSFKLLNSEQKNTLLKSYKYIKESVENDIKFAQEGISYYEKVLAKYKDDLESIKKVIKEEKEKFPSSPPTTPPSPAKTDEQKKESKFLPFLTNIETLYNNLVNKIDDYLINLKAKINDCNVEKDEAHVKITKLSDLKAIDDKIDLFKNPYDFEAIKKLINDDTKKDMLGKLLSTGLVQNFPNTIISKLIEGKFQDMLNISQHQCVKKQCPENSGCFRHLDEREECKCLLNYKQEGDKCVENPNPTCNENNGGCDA
# B1: recombinant Pfs38 (6-Cys domain, aa 153–328) (domain or fragment)
# chain: KIPGCDFNADYKESTAITTFSNMSPRRVKVCDVYPKSGDFISLMCPSDYSIKPDGCFSNVYVKRYPNEEVKEEDRFNLNRKWDASKYNVVSIETVLKMNMITQGDKYSIFSKLPDVKDQVDFTCICQSNDEQDNLMMNVYINNTSYLTNNTRSIGVNKHSFSNSEIFERIEREEIS
# notes: Pfs38, Plasmodium falciparum 6-Cys protein; 6-Cys domain aa 153-328, amplified from a codon-optimised synthetic gene (aa 22-328) and cloned in pET28b between NcoI and XhoI; Cloning in pET28b between NcoI and XhoI would give a C-terminal His6 (surmised); The forward primer adds a few residues (Met-Gly-Ser) before the insert (surmised from the primer); also called rPfs38
# Assays:
# [1] = target: T1, recombinant PfMSP-1_(65) (aa 1052–1664); experiment: far-Western, overlay or dot blot; 1-5 µg recombinant protein separated by SDS-PAGE, blotted, denatured and renatured; membrane incubated with 2 µg/mL purified GLURP R2, Pfs38 or SERA-5 in 100 mM NaCl, 20 mM Tris pH 7.6, 0.5 mM EDTA, 10% glycerol, 1 mM DTT, 2 h at RT; detected with antisera to the soluble protein; conditions: both partners purified
# [2] = target: B1; experiment: SPR; BIACORE 2000, 37 °C, HBS-EP buffer; GLURP R2 immobilised (up to 400 RU) on CM5 chip; Pfs38 injected at increasing concentrations, 20 µL/min; 1:1 Langmuir fit; conditions: both partners purified
Binder,binding result [1],Kd [2]
B1,binds,
"recombinant GLURP R2 (domain or fragment, Limits are not printed. The conventional GLURP R2 fragment (705-1178, F32 strain, 1271-aa GLURP) is assumed. The 3D7 orthologue is Q8IJ56.) DGPVPSKPFEEIEKVDVQPKIVDLQIIEPNFVDSQPNPQEPVEPSFVKIEKVPSEENKHASVDPEVKEKENVSEVVEEKQNSQESVEEIPVNEDEFEDVHTEQLDLDHKTVDPEIVEVEEIPSELHENEVAHPEIVEIEEVFPEPNQNNEFQEINEDDKSAHIQHEIVEVEEILPEDDKNEKVEHEIVEVEEILPEDKNEKGQHEIVEVEEILPEDDKNEKVEHEIVEVEEILPEDKNEKGQHEIVEVEEILPEDKNEKVEHEIVEVEEILPEDKNEKGQHEIVEVEEILPEDKNEKVQHEIVEVEEILPEDKNEKGQHEIVEVEEILPEEDKNEKGQHEIVEVEEILPEDKNEKVQHEIVEVEEILPEDKNEKVQHEIVEVEEILPEIVEIEEVPSQTNNNENIETIKPEEKKNEFSVEEKAIPQEPVVPTLNENENVTPKPSEGESTKPDIVQIKIVQENKPNKKETPVVDG",,0.026 µM
